From patent publication US20200291070A1
One block for each molecule: values may come before it. Numbered stars: 1 amine (or outer) side, 2 acyl side, 3 side chain; on linkers, the order of the positions; unused ones are H or OH. Bridge positions count the residues as written; N and C are the ends. Square brackets hold non-standard residues; d marks the D form. Ends that are not written are not given here. Tm = trimesic acid, bicyclized on Tm at the N-terminus; Trimesoyl = O=C(c1cc(C(=O)[*:2])cc(C(=O)[*:3])c1)[*:1]; 2Nal = N[C@@H](Cc1ccc2ccccc2c1)C(=O)O; Dap = NC[C@H](N)C(=O)O; βAla = NCCC(=O)O

Assays:
[1] = molecular target: Recombinant GST-NEMO (from plasmid pGEX4T3-NEMO(1-196)) (UniProt Q9Y6K9); assay: HTRF competition against biotin-IKKβKK/RR(701-745) on GST-NEMO
[2] = molecular target: Recombinant GST-NEMO (from plasmid pGEX4T3-NEMO(1-196)) (UniProt Q9Y6K9); assay: HTRF competition IC50 against peptide 7; upper end tied to peptide 12 by Table 5 (3.0 vs 1.0 µM)
[3] = molecular target: Recombinant GST-NEMO (from plasmid pGEX4T3-NEMO(1-196)) (UniProt Q9Y6K9); assay: HTRF competition IC50 against peptide 7
[4] = molecular target: Recombinant GST-NEMO (from plasmid pGEX4T3-NEMO(1-196)) (UniProt Q9Y6K9); assay: HTRF competition IC50 against peptide 7; lower end tied to peptide 13 by Table 5 (1.7 vs 1.0 µM)
[5] = molecular target: Recombinant GST-NEMO (from plasmid pGEX4T3-NEMO(1-196)) (UniProt Q9Y6K9); assay: HTRF competition IC50, peptide 7 against peptide 6
[6] = molecular target: Recombinant GST-NEMO (from plasmid pGEX4T3-NEMO(1-196)) (UniProt Q9Y6K9); assay: HTRF competition against biotin-IKKβKK/RR(701-745) on GST-NEMO; lower end tied to peptide 2 by the same paragraph

Sequence of Recombinant GST-NEMO (from plasmid pGEX4T3-NEMO(1-196)) (Q9Y6K9 1-196): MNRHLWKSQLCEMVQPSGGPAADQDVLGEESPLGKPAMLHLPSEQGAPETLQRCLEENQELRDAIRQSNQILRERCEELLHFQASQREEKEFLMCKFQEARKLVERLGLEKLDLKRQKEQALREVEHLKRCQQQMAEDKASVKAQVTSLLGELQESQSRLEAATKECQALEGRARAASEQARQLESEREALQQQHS

B2: peptide 6, Tm(GWIY)Δ(FΦRrRΔ)-BBK (peptide)
peptide: Trimesoyl-GWIY[Dap]F[2Nal]R[dR]R[Dap][βAla][βAla]K
modifications: linker N-5-11 via Tm
IC50 [1]: 5900 nM

B3: peptide 8, Tm(GWIYa)Δ(FΦRrRΔ)-BBK (peptide)
peptide: Trimesoyl-GWIY[dA][Dap]F[2Nal]R[dR]R[Dap][βAla][βAla]K
modifications: linker N-6-12 via Tm
IC50 [1]: 2900 nM

B9: peptide 3, Tm(GWIY)Δ(FΦRRRRΔ)-BBK (peptide)
peptide: Trimesoyl-GWIY[Dap]F[2Nal]RRRR[Dap][βAla][βAla]K
modifications: linker N-5-12 via Tm
IC50 [1]: 1500 nM

B11: peptide 10, Tm(aGWIY)Δ(FΦRrRΔ)-BBK (peptide)
peptide: Trimesoyl-[dA]GWIY[Dap]F[2Nal]R[dR]R[Dap][βAla][βAla]K
modifications: linker N-6-12 via Tm
IC50 [1]: 2300 nM

B12: peptide 7, Tm(GWIYA)Δ(FΦRrRΔ)-BBK (peptide)
peptide: Trimesoyl-GWIYA[Dap]F[2Nal]R[dR]R[Dap][βAla][βAla]K
modifications: linker N-6-12 via Tm
IC50 [1]: 1000 nM | fold increase in binding affinity (against peptide 6) [5]: 5.9 fold

B14: peptide 9, Tm(AGWIY)Δ(FΦRrRΔ)-BBK (peptide)
peptide: Trimesoyl-AGWIY[Dap]F[2Nal]R[dR]R[Dap][βAla][βAla]K
modifications: linker N-6-12 via Tm
IC50 [1]: 2200 nM

B15: peptide 2, Tm(GWIY)Δ(FΦRRRΔ)-BBK (peptide)
peptide: Trimesoyl-GWIY[Dap]F[2Nal]RRR[Dap][βAla][βAla]K
modifications: linker N-5-11 via Tm
IC50 [1]: 3400 nM | IC50 [6]: 3400 to 28000 nM

The remaining lines, values ahead:

IC50 [1]: 1200 nM
Molecule: peptide 19, Tm(GWIYA)Δ(FΦRrRΔ)-BBK (as printed)

IC50 [1]: 2100 nM
B1: peptide 18, Tm(GWIYA)Δ(FΦRaRΔ)-BBK (peptide)
peptide: Trimesoyl-GWIYA[Dap]F[2Nal]R[dA]R[Dap][βAla][βAla]K
modifications: linker N-6-12 via Tm

IC50 [1]: 3000 nM | fold decrease in potency (against peptide 7) [2]: 2 to 3 fold
B4: peptide 12, Tm(GAIYA)Δ(FΦRrRΔ)-BBK (peptide)
peptide: Trimesoyl-GAIYA[Dap]F[2Nal]R[dR]R[Dap][βAla][βAla]K
modifications: linker N-6-12 via Tm

IC50 [1]: 1200 nM
B5: peptide 11, Tm(AWIYA)Δ(FΦRrRΔ)-BBK (peptide)
peptide: Trimesoyl-AWIYA[Dap]F[2Nal]R[dR]R[Dap][βAla][βAla]K
modifications: linker N-6-12 via Tm

fold lower NEMO-binding affinity (against peptide 7) [3]: > 100 fold
B6: peptide 21, Tm(GAAAA)Δ(FΦRrRΔ)-BBK (peptide)
peptide: Trimesoyl-GAAAA[Dap]F[2Nal]R[dR]R[Dap][βAla][βAla]K
modifications: linker N-6-12 via Tm

IC50 [1]: 1700 nM | fold decrease in potency (against peptide 7) [4]: 2 to 3 fold
B7: peptide 13, Tm(GWAYA)Δ(FΦRrRΔ)-BBK (peptide)
peptide: Trimesoyl-GWAYA[Dap]F[2Nal]R[dR]R[Dap][βAla][βAla]K
modifications: linker N-6-12 via Tm

IC50 [1]: 1900 nM
B8: peptide 15, Tm(GWIYA)Δ(AΦRrRΔ)-BBK (peptide)
peptide: Trimesoyl-GWIYA[Dap]A[2Nal]R[dR]R[Dap][βAla][βAla]K
modifications: linker N-6-12 via Tm

IC50 [1]: 1100 nM
B10: peptide 17, Tm(GWIYA)Δ(FΦArRΔ)-BBK (peptide)
peptide: Trimesoyl-GWIYA[Dap]F[2Nal]A[dR]R[Dap][βAla][βAla]K
modifications: linker N-6-12 via Tm

IC50 [1]: 16000 nM | fold lower NEMO-binding affinity (against peptide 7) [3]: 16 fold
B13: peptide 20, Tm(GAIAA)Δ(FΦRrRΔ)-BBK (peptide)
peptide: Trimesoyl-GAIAA[Dap]F[2Nal]R[dR]R[Dap][βAla][βAla]K
modifications: linker N-6-12 via Tm

IC50 [1]: 2800 nM
B16: peptide 14, Tm(GWIAA)Δ(FΦRrRΔ)-BBK (peptide)
peptide: Trimesoyl-GWIAA[Dap]F[2Nal]R[dR]R[Dap][βAla][βAla]K
modifications: linker N-6-12 via Tm
